{"source": "patent US9283300B2", "about": "“Use of midkine protein and the protein-containing medical device” (GENERAL REGENERATIVES, LTD, priority 2009, dated 2016)", "molecules": {"B1": {"name": "rhMK: recombinant human midkine mature protein (SEQ ID NO.1) expressed in E. coli and purified by ion-exchange chromatography (protein, listed as Homo sapiens)", "chain": "MKKKDKVKKGGPGSECAEWAWGPCTPSSKDCGVGFREGTCGAQTQRIRCRVPCNWKKEFGADCKYKFENWGACDGGTGTKVRQGTLKKARYNAQCQETIRVTKPCTPKTKAKAKAKKGKGKD"}}, "key": {"[1]": {"tested_on": "cartilage of normal rat (articular, ear, tracheal, intervertebral disc)", "experiment": "rhMK effect on cartilage thickness of normal rats (subcutaneous injection, histology)", "format": "in vivo", "settings": "rhMK 175 μg/kg s.c. daily for a week", "experimental": "Method. 8-weeks-old male C57BL/6J mice were injected subcutaneously with recombinant human MK (rhMK) or control saline. The injection volume was 0.5 ml, given daily for a week. The mice were grouped (3 animals per group): Saline (NS) group, rhMK groups injected with various dosages at 10, 33, 100, 300, 900 μg/kg. Rats were injected with saline or rhMK (175 μg/kg) daily for a week. Rabbits were injected with saline or rhMK (92.5 μg/kg) daily for two week. Histological observation and evaluation. The knee joint tissues of all mice and rats were fixed in 10% (v/v) formalin for 1 day, the tissues of rabbits were fixed for 2 days. The fixed tissues were subjected to demineralization in liquid (7% AlCl3.6H2O, 5% methanoic acid, 8.5% HCl) 4 days for mouse and rats issues, and 10 days for rabbit tissues. The demineralized tissues were subjected to dehydration by gradient ethanol, and treated for transparency by xylene, and embedded in wax. Tissue sections were prepared by the paraffin slicing machine (Laica), and stained with hemotoxylin/eosin or Safranine O/fast green staining. Slides were observed under microscope and analyzed. The thickness of cartilage tissues were measured by the vernier caliper on microscope. Three tissue sections from each sample were measured and analyzed statisticaly. The distance between surface of cartilage to subchondral tide line was measured at ½ position of femoral condyle to denote the thickness of knee-joint cartilage. The thickness of cartilage at central part of ears was measured to denote the thickness of ear elastic cartilage. The distance between out surface of annulus to nucleus of the intervertebral disc was measured to denote the thickness of thoracic intervertebral disc (T2-3). To verify the results of rhMk in mice, we performed the same experiments in vivo using commonly used laboratory animals, rat and rabbit. Rats were injected subcutaneously with rhMK at 175 μg/kg/day for one week, and rabbits was injected subcutaneously 92.5 ug/kg/day for two weeks. […] The injection dose of rhMK: mice was injected subcutaneously 300 μg/kg daily for a week; rats were injected 175 μg/kg daily for a week; and New Zealand rabbits was injected 92.5 μg/kg daily for two weeks. Three animals per group were analyzed."}, "[2]": {"tested_on": "dedifferentiated rat chondrocytes in high-density culture", "experiment": "Redifferentiation of dedifferentiated chondrocytes in high-density culture (Col2a1 expression)", "format": "cell-based", "experimental": "5. High density culture of chondrocytes. The chondrocytes were harvested and suspended in DMEM containing 10% FBS. The cells were seeded at 4×10^5 cells/well into a 24-well plate, and experiment was divided into two groups: control group and experimental group (with 3 μg/m. 1 rhMK). When the cells reached confluence, they were cultured for additional 14 days. The culture medium was changed every two days. After the culture, some of the cells were collected for RNA extraction, and some were treated with trypsin and 0.2% type II collagenase at 37° C. for 30 min. The cells were cytospined onto glass slide and stored at −80° C. 6. Immunohistochemical staining. The cytospined glass slides covered with the cultured chondrocytes under various conditions were stored at −80° C. They were fixed in cold acetone for 10 min, treated sequentially in PBS for 5 min, in 3% H2O2 (in ddH2O) for 10 min at room temperature, and finally in ddH2O for 5 min. The slides were covered with 5% BSA (bovine serum albumine) for 20 min at room temperature. The excess serum was removed and the sections were covered with antibody against type II collagen (dilution 1:100) for 30 min at 37° C. […] RNA extraction and semi-quantitative PCR. […] PCR products were separated on 1.5% (w/v) agarose gels and quantified after staining with ethidium bromide in comparison with internal control gene expression of β-actin."}, "[3]": {"tested_on": "full-thickness defect of rabbit knee articular cartilage", "experiment": "Full-thickness cartilage defect of rabbit knee joint, intra-articular rhMK", "format": "in vivo, New Zealand white rabbits", "settings": "rabbit knee full-thickness cartilage damage model, 18 samples, 13 recovered; no recovery in saline control sides, P<0.01", "experimental": "Method. 2-month-old male New Zealand white rabbits (2.0˜2.5 kg weight) were anesthetized with 3% pentobarbital sodium (30 mg/kg) by ear vein injection. After anesthesia, prepare the skin on both sides of the knees were prepared for sterilization. With conventional surgical sterilization and under sterile conditions, the inner side of knees was cut to expose the femoral condyle surface. The full-thickness cartilage injury was made on the femoral condyle surface for both sides of the rabbit knees using an electrical drill. The cartilage hole was 3 mm in diameter and 4 mm in depth. The wound was closed with 4-0 lines. 400,000 units penicillin was injected daily for one week to prevent the wound site infection. 24 hours after surgery, normal saline or rhMK was injected into the knee articular cavity. The injection volume was 0.5 ml, three times a week for 2 weeks. rhMK was injected into one side of the rabbit knee joint, the other side was injected with saline as control. The rabbits were kept in cages and moved freely without fixation of the injured knees. After 2, 4, 6 and 12 weeks, rabbits were sacrificed. Cartilage tissues of the knee joint were removed for routine biopsy. The tissue sections were prepared for H&E, and fast green—Safranin O staining. The histological observation and evaluation were conducted under microscope."}}, "data": [{"molecule": "B1", "values": [{"measurement": "Cartilage thickness, Ear", "setting": "[1]", "result": "107 ± 3.4", "unit": "µm"}, {"measurement": "Cartilage thickness, Femoral condyle", "setting": "[1]", "result": "263 ± 54.4", "unit": "µm"}, {"measurement": "Cartilage thickness, Intervertbral disc (T2-3)", "setting": "[1]", "result": "659 ± 40.8", "unit": "µm"}, {"measurement": "Cartilage thickness, Trachea", "setting": "[1]", "result": "246 ± 9.1", "unit": "µm"}, {"measurement": "effect on Col2a1 re-expression", "setting": "[2]; P3 fibrochondrocytes cultured in high-density", "result": "no effect"}, {"measurement": "Col2a1 expression level in high-density cultures with rhMK", "setting": "[2]; P6 articular chondrocyte and P3 auricular chondrocyte", "result": "significantly inhibited"}, {"measurement": "rate of recovery in the rhMK treated side", "setting": "[3]", "result": 72.2, "unit": "%"}]}]}
